Data published in patent US20240218069A1 (LYVGEN BIOPHARMA, published 2024).
Substitutions are numbered along the chain they refer to. Each block holds one binder with its values, some of them ahead of it.

Columns and labels:
[1] = target: T1, human CD40 (human, UniProt P25942 21-277); assay: FACS on CHO cells expressing human CD40 (FIG. 2D)
T1 construct: whole, on cells; also called huCD40

[2] = target: T2, human B7H3 (human, UniProt Q5ZPR3 29-534); assay: FACS on CHO cells over-expressing human B7H3
T2 construct: whole, on cells; CHO cells over-expressing human B7H3 (CHO-B7H3); also called CD276; cellular B7H3
T2 sequence (looked up): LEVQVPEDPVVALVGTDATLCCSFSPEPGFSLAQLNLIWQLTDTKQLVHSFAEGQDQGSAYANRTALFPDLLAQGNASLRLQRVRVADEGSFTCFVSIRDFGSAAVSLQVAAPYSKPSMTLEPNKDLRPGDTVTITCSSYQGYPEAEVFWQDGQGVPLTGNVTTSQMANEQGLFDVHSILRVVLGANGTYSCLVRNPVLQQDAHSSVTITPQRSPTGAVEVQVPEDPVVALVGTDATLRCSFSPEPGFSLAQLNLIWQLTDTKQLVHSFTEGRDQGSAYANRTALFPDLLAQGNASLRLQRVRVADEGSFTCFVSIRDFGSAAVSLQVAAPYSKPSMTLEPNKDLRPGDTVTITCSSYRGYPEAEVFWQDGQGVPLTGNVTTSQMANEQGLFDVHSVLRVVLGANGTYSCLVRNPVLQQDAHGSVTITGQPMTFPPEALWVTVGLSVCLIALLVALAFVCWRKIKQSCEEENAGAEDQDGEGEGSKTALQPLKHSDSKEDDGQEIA
Method: FACS analysis was performed to evaluate the binding properties of exemplary anti-B7H3 humanized antibodies. Briefly, CHO cells over-expressing human B7H3 were harvested using trypsin-EDTA partial digestion followed by centrifugation at 1000 g for 3 minutes. The cells were re-suspended in cold PBS-BSA (2%) at 2×10⁶/mL and aliquoted to 100 μL/tube. The anti-B7H3 humanized antibodies were serially diluted in PBS-BSA and 50 μL of each was added to the CHO-B7H3 cells. The cell were mixed and incubated at 4° C. in the dark for 2 hours, then washed with PBS-BSA twice. Secondary antibody conjugates (goat F(ab′)₂ anti-human IgG-Fc (PE), pre-adsorbed, Abcam #ab98596) at 1/500 dilution, 100 μL/well, was used to resuspend the cells. The cells were incubated 4° C. in dark for another 1 hour and washed twice with PBS-BSA, followed by fixation in 2% PFA/PBS, and then subjected to FACS analysis.
Binding of the antibodies to human B7H3 expressing CHO cells were evaluated and the mean fluorescence intensity is plotted in histograms as shown in FIGS. 1A-1C. […] However, Ly1426 (CDR grafted, without back mutation) didn't bind to cellular B7H3.

[3] = target: T1, human CD40; assay: FACS on CHO cells expressing human CD40 (FIG. 2C)
[4] = target: T1, human CD40; assay: FACS on CHO cells expressing human CD40 (FIGS. 2C and 2D)

T1 sequence (P25942 21-277): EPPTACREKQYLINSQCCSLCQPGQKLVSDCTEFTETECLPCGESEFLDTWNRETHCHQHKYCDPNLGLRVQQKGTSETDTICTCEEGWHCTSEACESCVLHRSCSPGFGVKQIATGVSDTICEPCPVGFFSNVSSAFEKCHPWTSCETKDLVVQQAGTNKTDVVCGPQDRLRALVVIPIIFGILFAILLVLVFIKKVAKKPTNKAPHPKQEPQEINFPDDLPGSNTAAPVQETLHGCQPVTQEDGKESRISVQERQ

binding result [2]: no binding
B2: Ly1426 (antibody, human IgG1, kappa, V domains shown)
VH: QVQLVQSGAEVKKPGASVKVSCKASGYTFTSYVMHWVRQAPGQGLEWMGYINPYNDGTECTDKFKGRVTMTRDTSTSTVYMELSSLRSEDTAVYYCARIYYGYDGTYFGVWGQGTLVTVSS
VL: EIVLTQSPATLSLSPGERATLSCRASSSVSYMHWYQQKPGQAPRLLIYATSNLASGIPARFSGSGSGTDFTLTISSLEPEDFAVYYCQQWSSNTLTFGGGTKVEIKR
notes: also called Ly383_VH-1/Ly383_VL-1; grafted humanized antibody of Ly383

binding result [3]: binds
B5: Ly1662 (bispecific antibody)
heavy: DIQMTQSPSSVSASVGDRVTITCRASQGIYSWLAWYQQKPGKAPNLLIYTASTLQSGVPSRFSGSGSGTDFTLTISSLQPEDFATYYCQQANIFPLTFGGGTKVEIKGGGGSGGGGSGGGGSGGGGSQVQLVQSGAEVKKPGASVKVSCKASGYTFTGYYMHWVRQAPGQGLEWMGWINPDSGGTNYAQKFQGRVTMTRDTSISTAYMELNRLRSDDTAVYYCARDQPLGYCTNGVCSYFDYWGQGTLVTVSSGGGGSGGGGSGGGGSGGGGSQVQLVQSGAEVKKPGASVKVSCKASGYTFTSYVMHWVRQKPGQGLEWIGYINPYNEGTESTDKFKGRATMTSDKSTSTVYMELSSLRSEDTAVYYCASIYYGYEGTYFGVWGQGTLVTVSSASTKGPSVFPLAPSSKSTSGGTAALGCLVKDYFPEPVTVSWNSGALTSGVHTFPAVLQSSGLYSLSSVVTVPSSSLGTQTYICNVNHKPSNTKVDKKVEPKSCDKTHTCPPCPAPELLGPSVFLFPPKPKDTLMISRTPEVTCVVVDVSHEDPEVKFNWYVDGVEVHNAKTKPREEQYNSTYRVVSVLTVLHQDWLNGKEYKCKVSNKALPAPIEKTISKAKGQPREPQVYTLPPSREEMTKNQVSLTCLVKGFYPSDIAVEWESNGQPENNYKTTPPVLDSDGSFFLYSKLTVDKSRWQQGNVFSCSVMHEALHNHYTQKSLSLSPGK
light: EIVLTQSPATLSLSPGERATLSCRASSSVSYMHWYQQKPGQAPRPWIYATSNLASGIPARFSGSRSGTDYTLTISSLEPEDFAVYYCQQWSSNTLTFGGGTKVEIKRTVAAPSVFIFPPSDEQLKSGTASVVCLLNNFYPREAKVQWKVDNALQSGNSQESVTEQDSKDSTYSLSSTLTLSKADYEKHKVYACEVTHQGLSSPVTKSFNRGEC
notes: Two-chain format; also called anti-B7H3/CD40 bi-specific antibody Ly1662

binding result [3]: binds
B7: Ly1661 (bispecific antibody, human IgG1, kappa)
heavy: QVQLVQSGAEVKKPGASVKVSCKASGYTFTSYVMHWVRQKPGQGLEWIGYINPYNEGTESTDKFKGRATMTSDKSTSTVYMELSSLRSEDTAVYYCASIYYGYEGTYFGVWGQGTLVTVSSASTKGPSVFPLAPSSKSTSGGTAALGCLVKDYFPEPVTVSWNSGALTSGVHTFPAVLQSSGLYSLSSVVTVPSSSLGTQTYICNVNHKPSNTKVDKKVEPKSCDKTHTCPPCPAPELLGPSVFLFPPKPKDTLMISRTPEVTCVVVDVSHEDPEVKFNWYVDGVEVHNAKTKPREEQYNSTYRVVSVLTVLHQDWLNGKEYKCKVSNKALPAPIEKTISKAKGQPREPQVYTDPPSREEMTKNQVSLTCEVKGFYPSDIAVEWESNGQPENNYKTTPPVLDSDGSFFLYSKLTVDKSRWQQGNVFSCSVMHEALHNHYTQKSLSLSPGK
chain 1: not shown
light: B5 light
chain 2: DIQMTQSPSSVSASVGDRVTITCRASQGIYSWLAWYQQKPGKAPNLLIYTASTLQSGVPSRFSGSGSGTDFTLTISSLQPEDFATYYCQQANIFPLTFGGGTKVEIKSSASTKGPSVFPLAPSSKSTSGGTAALGCLVKDYFPEPVTVSWNSGALTSGVHTFPAVLQSSGLYSLSSVVTVPSSSLGTQTYICNVNHKPSNTKVDKKVEPKSC
notes: Four-chain heterodimer format; also called anti-B7H3/CD40 bi-specific antibody Ly1661

Continued, binder first:

B1: Ly1579 (bispecific antibody)
heavy: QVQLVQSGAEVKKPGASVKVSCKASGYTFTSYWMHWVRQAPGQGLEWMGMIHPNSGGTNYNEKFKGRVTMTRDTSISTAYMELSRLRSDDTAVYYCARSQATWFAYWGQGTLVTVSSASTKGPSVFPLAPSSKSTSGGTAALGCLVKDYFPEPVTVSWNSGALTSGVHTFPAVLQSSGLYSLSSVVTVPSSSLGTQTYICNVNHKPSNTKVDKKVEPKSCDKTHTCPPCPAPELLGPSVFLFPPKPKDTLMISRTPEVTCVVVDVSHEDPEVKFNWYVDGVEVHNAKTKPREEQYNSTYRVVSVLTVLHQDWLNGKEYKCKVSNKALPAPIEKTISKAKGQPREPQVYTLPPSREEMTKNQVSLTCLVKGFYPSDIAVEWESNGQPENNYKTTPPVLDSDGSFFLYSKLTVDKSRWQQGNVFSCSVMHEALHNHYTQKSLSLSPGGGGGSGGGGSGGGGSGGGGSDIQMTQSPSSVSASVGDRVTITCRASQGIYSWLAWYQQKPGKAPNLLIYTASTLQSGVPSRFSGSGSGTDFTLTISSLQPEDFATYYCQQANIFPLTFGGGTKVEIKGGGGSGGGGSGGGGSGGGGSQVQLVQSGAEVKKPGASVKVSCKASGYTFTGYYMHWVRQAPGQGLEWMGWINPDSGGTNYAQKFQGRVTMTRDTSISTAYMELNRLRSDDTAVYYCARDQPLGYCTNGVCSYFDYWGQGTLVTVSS
light: EIVLTQSPATLSLSPGERATLSCRASSSVSSSYLHWYQQKPGQAPRLLIYSTSNLASGIPARFSGSGSGTDFTLTISSLEPEDFAVYYCQHYSGYPLTFGGGTKVEIKRTVAAPSVFIFPPSDEQLKSGTASVVCLLNNFYPREAKVQWKVDNALQSGNSQESVTEQDSKDSTYSLSSTLTLSKADYEKHKVYACEVTHQGLSSPVTKSFNRGEC
notes: Two-chain format; also called anti-B7H3/CD40 bi-specific antibody Ly1579
binding result [1]: binds

B3: Ly1663 (bispecific antibody)
heavy: B7 heavy with D354L, E371L
light: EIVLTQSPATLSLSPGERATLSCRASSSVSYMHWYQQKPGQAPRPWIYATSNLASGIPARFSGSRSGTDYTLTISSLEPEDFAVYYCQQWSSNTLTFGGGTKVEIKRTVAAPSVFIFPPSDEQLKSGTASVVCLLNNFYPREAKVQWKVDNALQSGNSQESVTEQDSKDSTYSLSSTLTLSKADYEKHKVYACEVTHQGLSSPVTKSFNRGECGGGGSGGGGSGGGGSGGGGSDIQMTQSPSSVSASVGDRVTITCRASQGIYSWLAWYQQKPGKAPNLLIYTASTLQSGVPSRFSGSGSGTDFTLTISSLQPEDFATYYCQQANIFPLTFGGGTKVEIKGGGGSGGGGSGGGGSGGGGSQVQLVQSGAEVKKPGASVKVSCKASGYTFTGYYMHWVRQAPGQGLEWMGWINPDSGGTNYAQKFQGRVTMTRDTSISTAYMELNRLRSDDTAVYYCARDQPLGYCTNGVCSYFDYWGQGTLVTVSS
notes: Two-chain format; also called anti-B7H3/CD40 bi-specific antibody Ly1663
binding result [3]: binds

B4: Ly1581 (bispecific antibody)
heavy: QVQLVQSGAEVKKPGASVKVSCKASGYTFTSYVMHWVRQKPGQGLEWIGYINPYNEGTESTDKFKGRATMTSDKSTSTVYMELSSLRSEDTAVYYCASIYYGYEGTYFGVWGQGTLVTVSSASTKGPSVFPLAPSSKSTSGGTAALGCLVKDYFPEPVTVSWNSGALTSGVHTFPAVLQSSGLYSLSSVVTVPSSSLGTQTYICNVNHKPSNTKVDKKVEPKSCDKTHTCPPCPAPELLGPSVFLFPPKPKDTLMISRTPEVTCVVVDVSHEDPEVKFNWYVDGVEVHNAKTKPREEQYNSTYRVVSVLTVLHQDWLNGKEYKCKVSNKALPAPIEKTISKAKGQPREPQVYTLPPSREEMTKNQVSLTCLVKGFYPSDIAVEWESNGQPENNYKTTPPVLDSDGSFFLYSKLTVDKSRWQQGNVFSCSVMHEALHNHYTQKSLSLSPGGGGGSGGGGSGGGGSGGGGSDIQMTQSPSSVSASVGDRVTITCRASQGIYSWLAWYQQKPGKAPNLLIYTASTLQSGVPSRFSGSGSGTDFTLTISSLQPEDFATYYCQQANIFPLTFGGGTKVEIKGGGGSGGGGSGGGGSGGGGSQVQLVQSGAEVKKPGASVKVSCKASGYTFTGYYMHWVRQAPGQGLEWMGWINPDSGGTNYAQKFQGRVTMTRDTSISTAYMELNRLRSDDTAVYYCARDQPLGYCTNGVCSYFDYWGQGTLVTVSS
light: B5 light
notes: also called anti-B7H3/CD40 bi-specific antibody Ly1581
binding result [4]: binds

B6: Ly1660 (bispecific antibody, human IgG1, kappa)
heavy: B7 heavy with D354L, S357C, T369W, E371L
chain 1: not shown
light: B5 light
chain 2: B7 chain 2
notes: Four-chain heterodimer format; also called anti-B7H3/CD40 bi-specific antibody Ly1660
binding result [3]: binds
